# According to the supplement of paper PMC9170038:
# System: MS2 coat protein
# Assay: apparent KD of MS2 coat protein; designed switch direction (-1 OFF switch, 1 ON switch): -1; higher = weaker reporter binding
# Procedure, shortened: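 Designed RNA switches sharing common flanks were transcribed on Illumina chips by stalled E. coli RNA polymerase. They were titrated with SNAP-549-labelled MS2 coat protein, from 0.7 or 1.5 nM doubling to 3 µM, in Tris-HCl pH 7.5 buffer with KCl, MgCl2, BSA, DTT, tRNA and Tween-20. Titrations ran without input, with 200 uM small-molecule ligand, or with an oligonucleotide input. The apparent KD of each design is the median over its clusters, after curve-fitting of normalised cluster fluorescence.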
# [1] = Eterna round: R95, input ligand: FMN 200 uM
# [2] = Eterna round: R95, input ligand: microRNA oligo, concentration not stated
# [3] = Eterna round: R95, input ligand: none
sequence,measurement,setting,value
"GCUGGAAGAGGAUAUACAUAACGUGCGUCAGCACGAGGCCUACAUGAGGAUCACCCAUGUAGAAGGCUUCCAGC [EX2 #77] (Eterna round: R97, puzzle: Exclusion 2)",apparent KD of MS2 coat protein,input ligand: FMN 200 uM,27.9 nM
same,apparent KD of MS2 coat protein,input ligand: none,15.5 nM
"GCGGGCUUUUAGGUUCUUAACAUGAGGAUCACCCAUGUGCUCGUCUUGCCGGCCGGCGGGCCGCCGGCCGGGCUUGU (Eterna round: R97, puzzle: Sensor, turn-off variant 1)",apparent KD of MS2 coat protein,input ligand: FMN 200 uM,66.4 nM
same,apparent KD of MS2 coat protein,input ligand: none,68.2 nM
"AGUACUAACACGUCUGUGUUAGUACAAUAAGCUUGUGAAACAUGAGGAUCACCCAUGUCCUCAUAAGCUCGUCUUAU [salish99_TOv2_r3_079] (puzzle: Sensor v3, turn-off variant 2)",apparent KD of MS2 coat protein,[1],17.2 nM
same,apparent KD of MS2 coat protein,[2],749 nM
same,apparent KD of MS2 coat protein,[3],16.1 nM
ACGUAUAGAGGAUAUAGUGAAUAUUACAUGAGGAUCACCCAUGUUCUUCAAAGUAUAUUCCUAGAAGGCUAAUGAA [EX-5 Malc#11] (puzzle: Exclusion 5),apparent KD of MS2 coat protein,[1],537 nM
same,apparent KD of MS2 coat protein,[2],148 nM
same,apparent KD of MS2 coat protein,[3],171 nM
"CUAUGAGCUGAGGAUAUCUGCAGGUUGUGCCUGGGAGAAGGCAGCACAUGAGGAUCACCCAUGUGACCGAAAUA [Mod Ex6 A.17 by Nando] (Eterna round: R97, puzzle: Exclusion 6)",apparent KD of MS2 coat protein,input ligand: FMN 200 uM,195 nM
same,apparent KD of MS2 coat protein,input ligand: none,50.8 nM
"CGUCUACCAAAACCGAACAACAUGAGGAUCACCCAUGUCACUCCGCCUUAAACCUACGGAGUAAAGUGGGCGCAAAA [Vesocegeer] (Eterna round: R96, puzzle: Sensor v2, turn-off variant)",apparent KD of MS2 coat protein,input ligand: FMN 200 uM,32.2 nM
same,apparent KD of MS2 coat protein,"input ligand: microRNA oligo, concentration not stated",28.5 nM
same,apparent KD of MS2 coat protein,input ligand: none,33.2 nM
CAGUACUGAGGAUAUACAUGAGGAUCACCCAUGUGUUCCAGCUAGGAAACUAGCAAAAUUAGAAGGCAGUACUG [salish99_ex3_r3_087] (puzzle: Exclusion 3),apparent KD of MS2 coat protein,[2],11.3 nM
"UUUAAUUUUUUUUUUUUACAAGCUUUUUGCUCGUCUUAUACAUGAGGAUCACCCAUGUGGGUGAGAAAUGAAUUAUC [JMF 93] (puzzle: Sensor v3, turn-off variant 2)",apparent KD of MS2 coat protein,[1],59.9 nM
same,apparent KD of MS2 coat protein,[2],10.2 nM
same,apparent KD of MS2 coat protein,[3],76.8 nM
"UCUUAGUCAGGAUAUACAUGAGGAUCACCCAUGUAAAAUUUUAAUUUAAUUUUAAGGUGUAGAAGGGACCACCC [Ex3 #17] (Eterna round: R97, puzzle: Exclusion 3)",apparent KD of MS2 coat protein,input ligand: FMN 200 uM,33.2 nM
same,apparent KD of MS2 coat protein,input ligand: none,37.5 nM
GAGAGGUCAGGAUAUACGGAGAGAGGGAGUAGGUGAGGGUAACAUGAGGAUCACCCAUGUAGAAGGGACUAAGG [JR_Exclu2_Sub076] (puzzle: Exclusion 2),apparent KD of MS2 coat protein,[1],26.4 nM
same,apparent KD of MS2 coat protein,[2],27.4 nM
same,apparent KD of MS2 coat protein,[3],39.9 nM
"UAUUAGCAAGUAAGAUCCCACAUGAGGAUCACCCAUGUGCUCGUCUUAUAAGGUACUGUGACGAGAGUCACGGUACC [Mat - Sensor, turn-off var - Eli Mod - D45] (Eterna round: R97, puzzle: Sensor, turn-off variant 1)",apparent KD of MS2 coat protein,input ligand: FMN 200 uM,16.4 nM
same,apparent KD of MS2 coat protein,input ligand: none,19.1 nM
"UUAAUGGCUGUGAGGAUAUCGGAUAGAUAGAUAUUCGAGAAGGUACAUGAGGAUCACCCAUGUGUGAUUAGAGA [Brourd's EX4 #64] (Eterna round: R97, puzzle: Brourd's mod of Exclusion 4)",apparent KD of MS2 coat protein,input ligand: FMN 200 uM,269 nM
same,apparent KD of MS2 coat protein,input ligand: none,244 nM
CUGGUGUGAGGAUAUCAGGACACAUCCGCGGGCGUGUCAAAUGAGAAGGCACAUGAGGAUCACCCAUGUGGGAC [Onquveatge] (puzzle: Exclusion 4),apparent KD of MS2 coat protein,[1],57.1 nM
same,apparent KD of MS2 coat protein,[2],44.2 nM
same,apparent KD of MS2 coat protein,[3],53.2 nM
AAAAGCCAUGUUAGGAUAUGCAUGGCAGCUGCGAUGCAGAAGGAACAUGAGGAUCACCCAUGUGAACUUAAAUA [Anmaleus] (puzzle: Brourd's mod of Exclusion 4),apparent KD of MS2 coat protein,[1],21.2 nM
same,apparent KD of MS2 coat protein,[2],16.2 nM
same,apparent KD of MS2 coat protein,[3],18.3 nM
CGUCCUCUAGUCAGGAUAUUGUCUCGGAUACGAAACAAGAAGGGACAUGAGGAUCACCCAUGUAAUGAGGACGA [Malc #30 mod 15] (puzzle: Brourd's mod of Exclusion 4),apparent KD of MS2 coat protein,[1],20.1 nM
same,apparent KD of MS2 coat protein,[2],33.1 nM
same,apparent KD of MS2 coat protein,[3],33.8 nM
"CUGAGUCAAGGAUAUACAUGAGGAUCACCCAUGUAAAGUAGCUUGCGUACAGGCAGAUGUAGAAGGUGAUUCGG [Mod of JL 9 - Jieux - Exclusion 3] (Eterna round: R97, puzzle: Exclusion 3)",apparent KD of MS2 coat protein,input ligand: FMN 200 uM,100 nM
same,apparent KD of MS2 coat protein,input ligand: none,90.7 nM
